Data: US20230109208A1 (priority 2020, published 2023)
Where “and” joins values, the source holds several entries; their conditions need not be identical. Equal entries are not always repeated. Where two headings read alike, the source gives them in different places.

How the values were obtained:
[1] = system: COVID-19 (SARS-CoV-2); conditions: cited from earlier work; for Mean Days to Discharge (**median): Lopinavir/Ritonavir cohort
[2] = system: COVID-19 associated chronic ARDS (SARS-CoV-2); format: in vivo, human; conditions: one patient
Procedure: Hospitalized subject with confirmed COVID-19 pneumonia and established risk factors for poor outcomes was treated in the ICU for 12 weeks using standard supportive care for chronic acute respiratory distress syndrome (ARDS). […] Patient characteristics, clinical and laboratory outcomes, and adverse events were recorded through duration of hospitalization.
Over the course of their ICU stay, the patient developed acute respiratory distress syndrome (ARDS).

[3] = biological target: human GM-CSF (Homo sapiens, UniProt P04141); experiment: Binding of lenzilumab to GM-CSF
human GM-CSF, sequence (P04141 18-144): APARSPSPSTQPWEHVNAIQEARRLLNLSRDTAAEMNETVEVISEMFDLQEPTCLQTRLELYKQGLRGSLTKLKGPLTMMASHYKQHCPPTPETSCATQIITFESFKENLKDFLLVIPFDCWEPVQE

[4] = Four completed clinical trials of lenzilumab (healthy volunteers, asthma, rheumatoid arthritis, CMML); format: in vivo, human; conditions: 113 individuals in 4 completed trials
[5] = system: severe and critical COVID-19 pneumonia (SARS-CoV-2); conditions: for deaths / mortality: data cutoff May 1, 2020; for ALT after lenzilumab / AST after lenzilumab: individual patients: peak (patient 4) or at discharge (patients 5, 8)
[6] = system: severe COVID-19 pneumonia (SARS-CoV-2); conditions: for Incidence of IMV / Incidence of IMV and/or death / Incidence of death / Incidence of clinical improvement: n = 12
[7] = 12 patients (same cohort in Examples 8 and 10)
[8] = individual patient narratives, listed as lenzilumab
[9] = one patient, pretreatment vs 48 hours post-lenzilumab
[10] = patient 5 at discharge, unit not given

For “lopinavir and ritonavir [Lopinavir/Ritonavir]”, the “Mean Days to Discharge (**median)” value [1] is listed as 13** days and the “Mean Days to Discharge (**median)” value ([1]; listed as Lopinavir-Ritonavir) is listed as 13 days.

In the case of “Tocilizumab: anti-IL6 receptor monoclonal antibody; IL-6 antagonist”, the “Mean Days to Discharge” value ([1]; Tocilizumab cohort) is listed as 13.5 days.

B1: Lenzilumab: Humaneered recombinant monoclonal antibody, derived from mouse antibody LMM102, targeting and neutralizing human GM-CSF (antibody, chains of the INN, looked up, V domains shown)
VH: QVQLVQSGAEVKKPGASVKVSCKASGYSFTNYYIHWVRQAPGQRLEWMGWINAGNGNTKYSQKFQGRVTITRDTSASTAYMELSSLRSEDTAVYYCVRRQRFPYYFDYWGQGTLVTVSS
VL: EIVLTQSPATLSVSPGERATLSCRASQSVGTNVAWYQQKPGQAPRVLIYSTSSRATGITDRFSGSGSGTDFTLTISRLEPEDFAVYYCQQFNKSPLTFGGGTKVEIK
With B1 the lymphopenia post lenzilumab [2] was “appeared to improve”, the “infusion-related or systemic side effects” value ([2]; 600 mg IV every 8 hours, 3 doses) was “No infusion-related or systemic side effects” and the binding affinity [3] was “picomolar range”. The “tolerability, frequency and severity of adverse events” value [4] was “very well tolerated”, the “hemoglobin on day 6 in one patient” value ([5]; 10.3 on day 0, renal biopsy day 2, subcapsular hematoma) was 7.9 g/dL and the “median time to discharge post-lenzilumab” value ([5]; 11 discharged patients, range 3-19) was 5 days. The “patients with clinical improvement of at least 2 points on the 8-point ordinal scale” value ([5]; 11 of 12 patients) was 92% and 91.7%, the hematological toxicity ([5]; 12 patients) was “not associated with any hematological toxicity” and the “adverse events attributable to lenzilumab” value [5, 7] was “no treatment-emergent adverse events attributable to lenzilumab”. For the same molecule, the infusion reactions [5, 7] was “no infusion reactions”, the “median time to a 2-point clinical improvement” value ([5]; 95% CI 2-7 days) was 5 days and the “time to resolution of fever in patients febrile at baseline” value ([5]; after lenzilumab administration) was at most 48 h. For the same molecule, the “Lymphocytes 1st Lab, summary of patients 1-5” value ([5]; average of 5 patients) was 1.044, the “Lymphocytes Last Value, summary of patients 1-5” value ([5]; average of 5 patients) was 1.422 and the “Lymphocytes Low, summary of patients 1-5” value ([5]; average of 5 patients) was 0.912. For the same molecule, the “Neutrophils 1st Lab, unlabelled summary line of patients 1-5” value ([5]; average of 5 patients) was 3.892, the “Neutrophils High, summary of patients 1-5” value ([5]; average of 5 patients) was 6.008 and the “Neutrophils Last Value, summary of patients 1-5” value ([5]; average of 5 patients) was 3.98. For the same molecule, the “mean IL-6 on day 3” value ([5]; baseline 26.8 pg/mL, p=0.035) was 16.1 pg/mL, the “mean CRP on day 3” value ([5]; baseline 137.3 mg/L, p=0.040) was 51.2 mg/L and the “mean absolute lymphocyte count day 3” value ([5]; baseline 0.89, p=0.107) was 1.14e+09 L⁻¹. The “mean absolute neutrophil count day 3” value ([5]; baseline 5.1, p=0.27) was 4.8e+09 L⁻¹, the “mean hemoglobin day 3” value ([5]; baseline 12.9, p=0.89) was 11.4 g/dL and the “mean temperature at day 3” value ([5]; baseline 37.95, p=0.023) was 36.97. For the same molecule, the “proportion of patients with SpO2/FiO2<315 at end of observation” value ([5]; baseline 67%, p=0.00015) was 8%, the “mean platelet count day 3” value ([5]; baseline 217.7, p=0.001) was 2.618e+11 L⁻¹ and the deaths / mortality [5] was “no reported mortality”. For the same molecule, the deaths / mortality ([5]; listed as lenzilumab) was “no deaths”, the “patients discharged on home oxygen” value ([5]; five patients) was 42% and the ferritin after lenzilumab ([5]; individual patient narratives) was 571 µg/L. For the same molecule, the CRP after lenzilumab ([5]; individual patient narratives, dates in text) was 91 mg/L and 46 mg/L, the D-dimer after lenzilumab [5, 8] was 1507 ng/mL and 1759 ng/mL and 1802 ng/mL and the ferritin after lenzilumab [5, 8] was 1143 µg/L. For the same molecule, the “IL-6 post Rx” value ([5]; individual patients, data to Apr. 13, 2020) was 4.6 pg/mL, the ALT after lenzilumab [5] was 175 and the AST after lenzilumab [5] was 96. The ALT after lenzilumab ([5]; listed as lenzilumab) was 169 and 137, the AST after lenzilumab ([5]; listed as lenzilumab) was 203 and 118 and the “patients whose SpO2/FiO2 improved to >315 on day 1” value ([5]; of 8 patients <315 at baseline) was “four”. For the same molecule, the “patients with 2-point improvement” value ([5]; of 12) was 1 patients, the “patients with ≥3-point improvement” value ([5]; of 12) was 10 patients and the “patients requiring invasive mechanical ventilation” value ([5]; one patient) was 8.3%. For the same molecule, the “cytokines of the cytokine storm (G-CSF, MDC, GM-CSF, IL-1α, IFN-γ, IL-7, FLT-3L, IL-1rα, IL-6, IL-12p70)” value [5, 9] was “significant reduction”, the IL-6 after lenzilumab ([5]; patient 4, April 8) was 95.4 pg/mL and the LDH after lenzilumab ([5]; patient 4, April 8) was 388 U/L. The IL-6 after lenzilumab [5, 10] was 4.6, the ferritin after lenzilumab [5, 10] was 1223 and the “hemoglobin at last study observation, same patient” value ([5]; patient with subcapsular hematoma) was 9.3 g/dL. For the same molecule, the “patients requiring mechanical invasive ventilation” value ([5]; patients 1-5) was “None”, the “time to clinical two-point improvement faster than comparators” value ([5]; vs Remdesivir, Lopinavir-Ritonavir (and Tocilizumab)) was “more than 50%” and the “patients free of ARDS (SpO2/FiO2 of 315 or higher) by end of observation” value ([6]; 11 patients, P=0.43) was 92%. The “mean SpO2/FiO2 over time post-treatment vs untreated” value ([6]; P<0.001) was “statistically significant difference”, the “CRP reduction (mean)” value ([6]; after 4 days, control −0.95, P .01) was 135.8 and the “IL-6 concentration on day 4” value ([6]; baseline 28.6 pg/mL, P=0.02) was 8.52 pg/mL. The “mean CRP after treatment” value ([6]; baseline 172.2 mg/L, 4 days post-treatment, P=0.04) was 36.4 mg/L, the “mean absolute neutrophil count day 4” value ([6]; baseline 5.1, P=0.27) was 4.8e+09 L⁻¹ and the “mean hemoglobin day 4” value ([6]; baseline 12.9, P=0.89) was 11.4 g/dL. The IL-6 reduction ([6]; baseline vs day 4) was 20.1, the ALC increase ([6]; control 0.03, P .04) was 0.46 × 10*9/L and the Mean temperature reduction ([6]; control 0.459, P .02) was 1.075. For the same molecule, the “PLT increase (mean platelet count from baseline)” value ([6]; control 63.2, P .61) was 52.5, the “Ventilator-free survival vs untreated group” value ([6]; log-rank x^2=3.67, P=0.06) was “favored” and the “Incidence of IMV” value [6] was “(8%)”. The “Incidence of IMV and/or death” value [6] was “(8%)”, the Incidence of death [6] was “(8%)” and the “Incidence of IMV and/or death” value ([6]; P .07) was 1 patients. For the same molecule, the “Incidence of IMV” value ([6]; P .10) was 1 patients, the Incidence of death ([6]; P .43) was 1 patients and the “Incidence of clinical improvement” value ([6]; P .43 vs control) was 11 patients. For the same molecule, the “Incidence of clinical improvement” value ([6]; at least 2 points on 8-point scale) was “(92%)”, the “Incidence of clinical improvement” value ([6]; at least 2 points on 8-point scale, listed as lenzilumab) was 92% and the “Incidence of IMV and/or death” value ([6]; listed as lenzilumab) was 8%. The “cytokines and chemokines involved in the cytokine storm” value [6, 9] was “significant reduction”, the “Days to resolution of fever” value ([6]; range 1-6, P .22) was 2 days and the “Days to clinical improvement (median)” value ([6]; range 1-14, control 11, P .006) was 5 days. The “Days to discharge from hospital (median)” value ([6]; range 3-19, control 11, P .008) was 5 days and the “Increase in mean absolute lymphocyte counts” value ([6]; untreated 0.03, P=0.04) was 4.6e+08 L⁻¹.
